Results published in patent publication US11493476B2, “Charge detector and process for sensing a charged analyte” (Government of the United States of America, as represented …, priority 2016, dated 2022).

Columns and labels:
Format in all cases: biochemical
Cdk5/p25 [1] = target: T1, Cdk5/p25 (Homo sapiens, UniProt Q00535); test: Ionic liquid-gated FET measurement of solution pH change during Cdk5/p25-catalysed phosphorylation of histone H1, steady state; settings: FET measurements, non-linear regression, measured differentially against control without ATP
From the text: With regard to enzyme activity and kinetics, the ultrasensitive FET devices measured activity and kinetics of proline directed kinase Cdk5. Under normal physiological conditions, Cdk5 is tightly regulated by either the p35 or p39 […] proteins. Oxidative stress causes a 10 kDa membrane anchored fragment of p35 to be cleaved, forming the pathological activator p25, resulting in deregulation and delocalization of the complex to the cytosol. […]
Cdk5 mediated phosphorylation results in the release of a proton during ATP hydrolysis and the transfer of a single phosphate group to either a serine or threonine residue immediately preceding a proline. Here, ionic liquid-gated FETs detected small changes in the solution pH during phosphorylation of the substrate protein, histone H1.
In each case, Vt,BG was estimated from an ID-VBG plot. To account for instrument drift, each data point in the figure was measured differentially with a control sample that was identical to the measured vials except for the absence of ATP, thereby inhibiting the phosphorylation reaction. […]
[formula] where k is a constant, [H1] is the concentration of histone H1 and γ is a scaling constant. For the FET measurements in FIG. 54, we estimated k=17.5±1.3 μM from a non-linear regression of the model to the measured data, consistent with previously published activity measurements for the pathological Cdk5/p25 complex. […]

Cdk5/p25 [2] = target: T1, Cdk5/p25; test: FET time-series measurement of enzyme catalyzed phosphorylation (reaction kinetics); settings: Cdk5/p25 3.8 μM; [H1] 9.1, 12.7, 18.2 μM; independent of the histone H1 concentration
From the text: With reference to FIG. 53, FIG. 54, FIG. 55, and FIG. 56, ionic liquid-gate field-effect transistors (FET) were used for label-free enzyme activity and kinetics measurements. The proline directed kinase Cdk5 catalyzes the phosphorylation of substrate proteins (e.g., histone H1) in the presence of an activator (e.g., p25) and adenosine triphosphate (ATP). The hydrolysis of ATP results in the transfer of a single phosphate group to either a serine (Ser) or threonine (Thr) residue in the substrate protein and the release of a proton into solution, resulting in a change in solution pH. Moreover, ionic liquid-gate FETs measured change in solution pH as a function of the histone H1 concentration ([H1]) inferentially provide activity of Cdk5 under steady-state conditions. FET measurements were in quantitative agreement with a complementary assay that used radioactively labeled 32P-ATP as a reporter of Cdk5 activity. Time-series measurements of enzyme catalyzed phosphorylation as a function of [H1] […] The solid lines depict the reaction kinetics model that describes the time course of phosphorylation, while the dashed lines represent an estimate of the reaction velocity during the first 100 s after a change in the signal was detected.
The concentration of the Cdk5/p25 complex in these measurements was 3.8 μM (5-fold lower than the quantity used in FIG. 54 and FIG. 55). […]

Cdk5/p25 [3] = target: T1, Cdk5/p25; test: Radioactively labeled γ-32P-ATP enzyme activity assay; settings: radioactively labeled γ-32P-ATP assay

T1 sequence (Q00535 whole entry, species assumed, the tested form may be a part): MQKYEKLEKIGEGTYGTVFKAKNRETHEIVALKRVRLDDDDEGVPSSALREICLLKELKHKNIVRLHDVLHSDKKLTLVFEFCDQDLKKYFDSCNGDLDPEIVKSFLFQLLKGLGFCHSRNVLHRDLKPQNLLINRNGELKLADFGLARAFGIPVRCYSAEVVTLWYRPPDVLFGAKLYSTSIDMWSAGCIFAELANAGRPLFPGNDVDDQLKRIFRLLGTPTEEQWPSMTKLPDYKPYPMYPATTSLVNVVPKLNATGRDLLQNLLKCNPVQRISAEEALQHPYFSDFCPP
T1 sequence (Q15078 99-307 partner limits assumed, species assumed): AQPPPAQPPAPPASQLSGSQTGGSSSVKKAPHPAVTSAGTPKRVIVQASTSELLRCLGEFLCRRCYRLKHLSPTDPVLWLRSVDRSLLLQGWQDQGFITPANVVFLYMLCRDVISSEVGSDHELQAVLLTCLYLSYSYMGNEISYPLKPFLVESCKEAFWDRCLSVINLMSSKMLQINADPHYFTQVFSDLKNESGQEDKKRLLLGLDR

## histone H1
Cdk5/p25 [1]
  k (constant of kinase activity model versus histone H1 concentration): 17.5 ± 1.3 µM
Cdk5/p25 [2]
  rate constant k1 (first order rate law): 0.18±0.02 per min
Cdk5/p25 [3]
  k (constant of kinase activity model versus histone H1 concentration): 12.1 ± 2.3 µM
